Data taken from US20250163117A1 (CURE GENETICS, published 2025).
Changes are numbered by the printed parent chain. Like-named read-outs stand apart in the source and are kept apart here. Blank lines part the entries; values can stand above or below the binder they belong to.

Tests used:
Assay in all cases: cell-based or functional assay
[1] = target: T1, human intermediate-affinity IL-2 receptor IL-2Rβγ on cells (human, UniProt P14784 27-551; P31785 23-369)
T1 sequence (looked up) 1: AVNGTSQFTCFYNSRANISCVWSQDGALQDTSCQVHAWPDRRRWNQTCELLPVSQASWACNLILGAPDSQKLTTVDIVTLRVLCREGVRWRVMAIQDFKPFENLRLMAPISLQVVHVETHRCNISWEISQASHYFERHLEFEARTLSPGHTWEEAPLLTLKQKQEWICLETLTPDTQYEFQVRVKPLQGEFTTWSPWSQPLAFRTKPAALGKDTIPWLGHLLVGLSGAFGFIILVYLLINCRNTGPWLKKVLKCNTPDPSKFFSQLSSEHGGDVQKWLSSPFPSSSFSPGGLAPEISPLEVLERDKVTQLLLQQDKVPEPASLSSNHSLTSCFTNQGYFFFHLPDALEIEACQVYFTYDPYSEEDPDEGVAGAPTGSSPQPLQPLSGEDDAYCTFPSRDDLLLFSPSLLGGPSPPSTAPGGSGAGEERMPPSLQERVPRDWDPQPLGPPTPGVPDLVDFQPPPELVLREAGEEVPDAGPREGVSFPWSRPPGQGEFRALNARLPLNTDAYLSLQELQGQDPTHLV
T1 sequence (looked up) 2: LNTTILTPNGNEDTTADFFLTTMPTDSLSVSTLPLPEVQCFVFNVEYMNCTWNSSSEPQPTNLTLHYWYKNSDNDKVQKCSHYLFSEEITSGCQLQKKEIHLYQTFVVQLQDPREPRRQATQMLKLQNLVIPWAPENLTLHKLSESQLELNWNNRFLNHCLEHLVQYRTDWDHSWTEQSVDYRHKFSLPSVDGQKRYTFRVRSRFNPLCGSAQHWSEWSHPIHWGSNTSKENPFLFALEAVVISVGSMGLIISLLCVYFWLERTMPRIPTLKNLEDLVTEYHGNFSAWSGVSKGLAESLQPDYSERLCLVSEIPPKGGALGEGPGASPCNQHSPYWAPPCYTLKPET

[2] = target: T2, human high-affinity IL-2 receptor IL-2Rαβγ on cells (human, UniProt P01589 22-272; P14784 27-551; P31785 23-369)
T2 sequence (looked up) 1: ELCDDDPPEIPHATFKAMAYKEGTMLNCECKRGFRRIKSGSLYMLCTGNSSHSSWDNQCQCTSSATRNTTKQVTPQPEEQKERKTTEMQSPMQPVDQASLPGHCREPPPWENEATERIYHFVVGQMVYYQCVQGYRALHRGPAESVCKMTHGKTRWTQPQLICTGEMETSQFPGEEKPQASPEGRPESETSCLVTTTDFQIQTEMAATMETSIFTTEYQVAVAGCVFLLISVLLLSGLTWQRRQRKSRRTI
T2 sequence (looked up) 2: T1 sequence (looked up) 1
T2 sequence (looked up) 3: T1 sequence (looked up) 2

[3] = target: T3, mouse high-affinity IL-2 receptor IL-2Rαβγ on cells (mouse, UniProt P01590 22-268; P16297 27-539; P34902 23-369)
T3 sequence (looked up) 1: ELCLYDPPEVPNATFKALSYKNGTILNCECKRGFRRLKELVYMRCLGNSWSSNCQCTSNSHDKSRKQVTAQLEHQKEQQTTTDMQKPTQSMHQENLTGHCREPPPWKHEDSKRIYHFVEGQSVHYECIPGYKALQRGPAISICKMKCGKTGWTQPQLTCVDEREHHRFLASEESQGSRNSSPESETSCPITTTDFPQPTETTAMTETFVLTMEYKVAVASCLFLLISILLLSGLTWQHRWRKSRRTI
T3 sequence (looked up) 2: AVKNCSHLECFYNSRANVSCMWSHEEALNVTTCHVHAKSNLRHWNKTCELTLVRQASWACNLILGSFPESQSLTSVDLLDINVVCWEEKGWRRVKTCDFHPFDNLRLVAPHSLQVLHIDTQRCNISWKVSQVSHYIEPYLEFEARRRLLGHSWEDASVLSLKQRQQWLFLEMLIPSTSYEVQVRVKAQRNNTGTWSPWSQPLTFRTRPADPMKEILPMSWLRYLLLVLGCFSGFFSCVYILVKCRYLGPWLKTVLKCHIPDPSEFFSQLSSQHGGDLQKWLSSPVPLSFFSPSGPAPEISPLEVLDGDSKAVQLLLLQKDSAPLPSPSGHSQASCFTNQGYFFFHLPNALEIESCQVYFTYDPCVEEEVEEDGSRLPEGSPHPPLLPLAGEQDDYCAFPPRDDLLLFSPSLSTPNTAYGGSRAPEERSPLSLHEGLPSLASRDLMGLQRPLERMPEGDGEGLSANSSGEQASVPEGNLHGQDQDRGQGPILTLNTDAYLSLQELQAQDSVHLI
T3 sequence (looked up) 3: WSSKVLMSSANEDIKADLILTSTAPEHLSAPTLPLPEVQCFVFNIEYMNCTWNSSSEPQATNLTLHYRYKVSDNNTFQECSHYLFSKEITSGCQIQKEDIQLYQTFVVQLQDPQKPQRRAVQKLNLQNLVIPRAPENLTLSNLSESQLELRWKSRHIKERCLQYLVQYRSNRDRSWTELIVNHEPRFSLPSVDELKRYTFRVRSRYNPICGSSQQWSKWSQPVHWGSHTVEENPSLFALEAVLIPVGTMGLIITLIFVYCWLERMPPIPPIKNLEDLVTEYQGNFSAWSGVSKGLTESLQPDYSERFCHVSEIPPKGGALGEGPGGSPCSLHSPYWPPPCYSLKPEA

[4] = target: T4, mouse intermediate-affinity IL-2 receptor IL-2Rβγ on cells (mouse, UniProt P16297 27-539; P34902 23-369)
T4 sequence (looked up) 1: T3 sequence (looked up) 2
T4 sequence (looked up) 2: T3 sequence (looked up) 3

[5] = target: T1, human intermediate-affinity IL-2 …; remark: listed apart in the source
[6] = target: T2, human high-affinity IL-2 receptor …; remark: listed apart in the source
[7] = target: T3, mouse high-affinity IL-2 receptor …; remark: listed apart in the source
[8] = target: T4, mouse intermediate-affinity IL-2 …; remark: listed apart in the source
[9] = target: T1, human intermediate-affinity IL-2 …; remark: listed apart in the source
[10] = target: T1, human intermediate-affinity IL-2 …; remark: listed apart in the source

% pSTAT5 in human PBMC at High IL-2v concentration (25 nM per paragraph 254); western blot, pSTAT5/STAT5 normalised to 001 High [1]: 7.6%
% pSTAT5 in human PBMC at Low IL-2v concentration (2.5 nM per paragraph 254); western blot, pSTAT5/STAT5 normalised to 001 High [2]: 10.4%
% pSTAT5 in mouse splenocytes at Low IL-2v concentration (2.5 nM per paragraph 254); western blot, pSTAT5/STAT5 normalised to 001 High [3]: 11.5%
% pSTAT5 in mouse splenocytes at High IL-2v concentration (25 nM per paragraph 254); western blot, pSTAT5/STAT5 normalised to 001 High [4]: 18.9%
B1: CP-trIL-2 032 (ligand)
chain: ELKHLQSLEEELKDLEEVLNLAQSKNFHTIVEFLNRWITFSQSIISTLTGGGGSGGGGSPTSSSTKKTQLQLEHLLLDLQMILNGINNYKNPLRPRDLISNINVIVLELKG

EC50 of STAT5 activation, human CD8 T cells (flow cytometry) [5]: 45.7 nM
EC50 of STAT5 activation, human NK cells (flow cytometry) [5]: 15.6 nM
EC50 of STAT5 activation, human Tregs (flow cytometry) [6]: 22 nM
EC50 of STAT5 activation, mouse Tregs (flow cytometry) [7]: 129 nM
EC50 of STAT5 activation, mouse CD8 T cells (flow cytometry) [8]: 110 nM
EC50 of STAT5 activation, mouse NK cells (flow cytometry) [8]: 113 nM
EC50 (read off the curve): STAT5 phosphorylation in HH cells [9]: ~20 nM
% pSTAT5 in human PBMC at High IL-2v concentration (25 nM per paragraph 254); western blot, pSTAT5/STAT5 normalised to 001 High [1]: 41.4%
% pSTAT5 in human PBMC at Low IL-2v concentration (2.5 nM per paragraph 254); western blot, pSTAT5/STAT5 normalised to 001 High [2]: 6.5%
% pSTAT5 in mouse splenocytes at Low IL-2v concentration (2.5 nM per paragraph 254); western blot, pSTAT5/STAT5 normalised to 001 High [3]: 30.7%
% pSTAT5 in mouse splenocytes at High IL-2v concentration (25 nM per paragraph 254); western blot, pSTAT5/STAT5 normalised to 001 High [4]: 91.3%
B2: CP-trIL-2 072 (ligand)
chain: ELKHLQSLEEELKDLEEVLNLAQSKNFHLRPRDLISNINVIVLELKGSETTPTSSSTKKTQLQLEHLLLDLQMILNGINNYKNPTIVEFLNRWITFSQSIISTLT

EC50 (read off the curve): STAT5 phosphorylation in HH cells [9]: ~10 nM
B3: CP-trIL-2 073 (ligand)
chain: B2 chain with F89K, F96K

EC50 (read off the curve): STAT5 phosphorylation in HH cells [10]: ~6 nM
B4: CP-trIL-2 011 (ligand)
chain: PTSSSTKKTQLQLEHLLLDLQMILNGINNYKNPLRPRDLISNINVIVLELKGSETTELKHLQSLEEELKPLEEVLNLAQSKNFHTIVEFLNRWITFSQSIISTLT

% pSTAT5 in human PBMC at High IL-2v concentration (25 nM per paragraph 254); western blot, pSTAT5/STAT5 normalised to 001 High [1]: 9.3%
% pSTAT5 in human PBMC at Low IL-2v concentration (2.5 nM per paragraph 254); western blot, pSTAT5/STAT5 normalised to 001 High [2]: 6.2%
% pSTAT5 in mouse splenocytes at Low IL-2v concentration (2.5 nM per paragraph 254); western blot, pSTAT5/STAT5 normalised to 001 High [3]: 13.9%
% pSTAT5 in mouse splenocytes at High IL-2v concentration (25 nM per paragraph 254); western blot, pSTAT5/STAT5 normalised to 001 High [4]: 16.1%
B5: CP-trIL-2 042 (ligand)
chain: TIVEFLNRWITFSQSIISTLTGGGGSGGGGSPTSSSTKKTQLQLEHLLLDLQMILNGINNYKNPLRPRDLISNINVIVLELKGSETTELKHLQSLEEELKDLEEVLN

% pSTAT5 in human PBMC at High IL-2v concentration (25 nM per paragraph 254); western blot, pSTAT5/STAT5 normalised to 001 High [1]: 18.2%
% pSTAT5 in human PBMC at Low IL-2v concentration (2.5 nM per paragraph 254); western blot, pSTAT5/STAT5 normalised to 001 High [2]: 9.5%
% pSTAT5 in mouse splenocytes at Low IL-2v concentration (2.5 nM per paragraph 254); western blot, pSTAT5/STAT5 normalised to 001 High [3]: 14.6%
% pSTAT5 in mouse splenocytes at High IL-2v concentration (25 nM per paragraph 254); western blot, pSTAT5/STAT5 normalised to 001 High [4]: 21.8%
B6: CP-trIL-2 051 (ligand)
chain: PTSSSTKKTQLQLEHLLLDLQMILNGINNYKNPTIVEFLNRWITFSQSIISTLTGGGGSGGGGSELKHLQSLEEELKPLEEVLNLAQSKNFHLRPRDLISNINVIVLELKG

% pSTAT5 in human PBMC at High IL-2v concentration (25 nM per paragraph 254); western blot, pSTAT5/STAT5 normalised to 001 High [1]: 45.8%
% pSTAT5 in human PBMC at Low IL-2v concentration (2.5 nM per paragraph 254); western blot, pSTAT5/STAT5 normalised to 001 High [2]: 15.6%
% pSTAT5 in mouse splenocytes at Low IL-2v concentration (2.5 nM per paragraph 254); western blot, pSTAT5/STAT5 normalised to 001 High [3]: 16.7%
% pSTAT5 in mouse splenocytes at High IL-2v concentration (25 nM per paragraph 254); western blot, pSTAT5/STAT5 normalised to 001 High [4]: 25.2%
B7: CP-trIL-2 082 (ligand)
chain: LRPRDLISNINVIVLELKGSETTPTSSSTKKTQLQLEHLLLDLQMILNGINNYKNPTIVEFLNRWITFSQSIISTLTGGGGSGGGGSELKHLQSLEEELKDLEEVLN

% pSTAT5 in human PBMC at High IL-2v concentration (25 nM per paragraph 254); western blot, pSTAT5/STAT5 normalised to 001 High [1]: 12.1%
% pSTAT5 in human PBMC at Low IL-2v concentration (2.5 nM per paragraph 254); western blot, pSTAT5/STAT5 normalised to 001 High [2]: 10.7%
% pSTAT5 in mouse splenocytes at Low IL-2v concentration (2.5 nM per paragraph 254); western blot, pSTAT5/STAT5 normalised to 001 High [3]: 13.8%
% pSTAT5 in mouse splenocytes at High IL-2v concentration (25 nM per paragraph 254); western blot, pSTAT5/STAT5 normalised to 001 High [4]: 20.5%
B8: CP-trIL-2 062 (ligand)
chain: TIVEFLNRWITFSQSIISTLTGGGGSGGGGSELKHLQSLEEELKDLEEVLNLAQSKNFHLRPRDLISNINVIVLELKGSETTPTSSSTKKTQLQLEHLLLDLQMILNGIN

EC50 (read off the curve): STAT5 phosphorylation in HH cells [10]: ~30 nM
B9: CP-trIL-2 021 (ligand)
chain: LRPRDLISNINVIVLELKGSETTELKHLQSLEEELKPLEEVLNLAQSKNFHTIVEFLNRWITFSQSIISTLTGGGGSGGGGSPTSSSTKKTQLQLEHLLLDLQMILNGIN

EC50 (read off the curve): STAT5 phosphorylation in HH cells [10]: ~20 nM
% pSTAT5 in human PBMC at High IL-2v concentration (25 nM per paragraph 254); western blot, pSTAT5/STAT5 normalised to 001 High [1]: 38.1%
% pSTAT5 in human PBMC at Low IL-2v concentration (2.5 nM per paragraph 254); western blot, pSTAT5/STAT5 normalised to 001 High [2]: 9.1%
% pSTAT5 in mouse splenocytes at Low IL-2v concentration (2.5 nM per paragraph 254); western blot, pSTAT5/STAT5 normalised to 001 High [3]: 24.8%
% pSTAT5 in mouse splenocytes at High IL-2v concentration (25 nM per paragraph 254); western blot, pSTAT5/STAT5 normalised to 001 High [4]: 68.5%
B10: CP-trIL-2 022 (ligand)
chain: B9 chain with P37D
